Here are results for two molecules from article PMC11319775.

Like-named read-outs stand apart in the source and are kept apart here.

The target of series [1] is T1, TaHRP1:GST (UniProt A0A3B6H0D8 1-141).
T1 sequence: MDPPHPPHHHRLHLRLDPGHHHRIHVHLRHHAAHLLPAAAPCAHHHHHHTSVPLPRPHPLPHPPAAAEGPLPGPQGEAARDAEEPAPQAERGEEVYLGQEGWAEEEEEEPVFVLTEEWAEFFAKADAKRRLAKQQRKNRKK
The series can be described thus: EMSA. For orientation: In EMSA bound probe runs differently from free probe, usually more slowly.

The target of series [2] is T1, TaHRP1:GST. The series can be described thus: EMSA. The source holds these as a separate data set.

B1: mProbe-DNA (HBS mutated) (dsDNA)
DNA 1: AAAACCAAAATAACTAGTTAGGCGGCGGTGAAAGAGTTAAATTCCATTTATTTTT
DNA 2: AAAAATAAATGGAATTTAACTCTTTCACCGCCGCCTAACTAGTTATTTTGGTTTT
With B1, the binding result in the series with TaHRP1:GST [1] is “no binding”.

B2: Probe-DNA (HBS promoter probe) (dsDNA)
DNA 1: AAAACCAAAATAACTAGTTAAAGAAGAATGAAAGAGTTAAATTCCATTTATTTTT
DNA 2: AAAAATAAATGGAATTTAACTCTTTCATTCTTCTTTAACTAGTTATTTTGGTTTT
Turning to B2, the binding result with TaHRP1:GST [2] is on record as “binds”.
